The target of assay [1] is hCD73-his (full length extracellular domain of human CD73, residues 26-546, C-terminal polyhistidine tag) (human) (UniProt P21589). The assay is described as follows: SEC-MALS, hCD73-his:Fab 1:2 (4:8 uM); peak at ~12.6 min, 0.9 % of UV.
For assay [2] the target is unchanged. The assay is described as follows: SEC-MALS, hCD73-his:Fab 1:2 (4:8 uM); peak at ~16.8 min, 0.8 % of UV.
Assay [3] has the same target. Put plainly: SEC-MALS, hCD73-his:Fab 1:2 (4:8 uM); peak at ~20.1 min, 7.7 % of UV.
Assay [4] shares this target. Put plainly: SEC-MALS, hCD73-his:Fab 1:2 (4:8 uM); peak at ~14.7 min, 90.7 % of UV.
In assay [5] the target is N-hCD73-his (N-terminal domain of human CD73, residues 26-336) (human) (UniProt P21589). The assay is described as follows: SEC-MALS, N-hCD73-his:Fab 1:1 (8:8 uM); peak at ~20.0 min, 4.7 % of UV.
Sequence of N-hCD73-his (N-terminal domain of human CD73, residues 26-336) (human) (P21589 26-336 limits assumed): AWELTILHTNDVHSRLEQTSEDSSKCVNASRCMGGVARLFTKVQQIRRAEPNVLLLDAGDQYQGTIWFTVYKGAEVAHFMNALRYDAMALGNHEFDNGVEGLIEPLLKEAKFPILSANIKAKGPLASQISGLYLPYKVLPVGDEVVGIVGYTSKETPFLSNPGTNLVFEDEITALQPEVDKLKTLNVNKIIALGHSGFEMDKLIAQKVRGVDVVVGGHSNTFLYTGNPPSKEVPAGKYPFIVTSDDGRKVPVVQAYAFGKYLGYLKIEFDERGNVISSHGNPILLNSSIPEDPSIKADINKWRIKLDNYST
Assay [6] shares this target. Put plainly: SEC-MALS, N-hCD73-his:Fab 1:1 (8:8 uM); peak at ~17.4 min, 95.3 % of UV.
The target in assay [7] is hCD73-his (full length extracellular domain of human CD73, residues 26-546, C-terminal polyhistidine tag) (human) (UniProt P21589). Put plainly: DLS, hCD73-his:Fab 1:2 (4:8 uM); Rh SD 0.1, %Pd 15.1 (SD 4.3), %Mass 100.0 (SD 0.0).
Assay [8] addresses N-hCD73-his (N-terminal domain of human CD73, residues 26-336) (human) (UniProt P21589). The assay is described as follows: DLS, N-hCD73-his:Fab 1:1 (8:8 uM); Rh SD 0.1, %Pd 12.6 (SD 4.7), %Mass 100.0 (SD 0.0).
Assay [9] concerns the target hCD73-his (full length extracellular domain of human CD73, residues 26-546, C-terminal polyhistidine tag) (human) (UniProt P21589). The assay is described as follows: SEC-MALS, hCD73:mAb 1:1 (2.5:[…]); peak at ~17.1 min, […] of UV.
The target is the same in assay [10]. The assay is described as follows: SEC-MALS, hCD73:mAb 1:1 (2.5:[…]); peak at ~13.4 min, 1.9 % of UV.
Assay [11] shares this target. Put plainly: SEC-MALS, hCD73:mAb 1:4 (2.5:10 uM); peak at ~11.7 min, […] of UV.
For assay [12] the target is unchanged. The assay is described as follows: SEC-MALS, hCD73:mAb 1:1 (2.5:[…]); peak at ~11.5 min, 95.3 % of UV.
Assay [13] shares this target. Put plainly: SEC-MALS, hCD73:mAb 1:2 (2.5:5 uM); peak at ~15.3 min, 0.6 % of UV.
For assay [14] the target is unchanged. Put plainly: SEC-MALS, hCD73:mAb 1:2 (2.5:5 uM); peak at ~11.7 min, 52.5 % of UV.
For assay [15] the target is unchanged. Put plainly: SEC-MALS, hCD73:mAb 1:2 (2.5:5 uM); peak at ~13.4 min, 17.7 % of UV.
Assay [16] shares this target. Put plainly: SEC-MALS, hCD73:mAb 1:2 (2.5:5 uM); peak at ~17.1 min, 29.3 % of UV.
For assay [17] the target is unchanged. Put plainly: SEC-MALS, hCD73:mAb 1:4 (2.5:10 uM); peak at ~15.3 min, 1.2 % of UV.
The target is the same in assay [18]. The assay is described as follows: SEC-MALS, hCD73:mAb 1:4 (2.5:10 uM); peak at ~13.4 min, 16.2 % of UV.
Assay [19] shares this target. Put plainly: SEC-MALS, hCD73:mAb 1:4 (2.5:10 uM); peak at ~17.1 min, 58.6 % of UV.
The target is the same in assay [20]. The assay is described as follows: SEC-MALS, hCD73:mAb 1:0.5 (2.5:1.25 uM); peak at ~11.7 min, 71.9 % of UV.
Assay [21] has the same target. The assay is described as follows: SEC-MALS, hCD73:mAb 1:0.5 (2.5:1.25 uM); peak at ~13.4 min, 15.8 % of UV.
Assay [22] has the same target. The assay is described as follows: SEC-MALS, hCD73:mAb 1:0.5 (2.5:1.25 uM); peak at ~17.1 min, 13.4 % of UV.
Assay [23] concerns the target N-hCD73-his (N-terminal domain of human CD73, residues 26-336) (human) (UniProt P21589). The assay is described as follows: SEC-MALS, N-hCD73:mAb 1:1 as printed (5:[…]); peak at ~15.9 min, […] of UV.
Assay [24] has the same target. Put plainly: SEC-MALS, N-hCD73:mAb 1:1 as printed (5:[…]); peak at ~17.0 min, […] of UV.
Assay [25] addresses hCD73-his (full length extracellular domain of human CD73, residues 26-546, C-terminal polyhistidine tag) (human) (UniProt P21589). The assay is described as follows: SEC-MALS, hCD73:mAb 1:0.25 (2.5:0.625 uM); peak at ~11.8 min, 42.0 % of UV.
The target is the same in assay [26]. Put plainly: SEC-MALS, hCD73:mAb 1:0.25 (2.5:0.625 uM); peak at ~13.4 min, 21.6 % of UV.
Assay [27] has the same target. Put plainly: SEC-MALS, hCD73:mAb 1:0.25 (2.5:0.625 uM); peak at ~17.1 min, 36.4 % of UV.
The target in assay [28] is N-hCD73-his (N-terminal domain of human CD73, residues 26-336) (human) (UniProt P21589). Put plainly: SEC-MALS, N-hCD73:mAb 1:1 as printed (5:[…]); peak at ~13.9 min, 0.7 % of UV.
The target is the same in assay [29]. The assay is described as follows: SEC-MALS, N-hCD73:mAb 1:1 as printed (5:[…]); peak at ~14.7 min, 88.3 % of UV.
The target of assay [30] is hCD73-his (full length extracellular domain of human CD73, residues 26-546, C-terminal polyhistidine tag) (human) (UniProt P21589). The assay is described as follows: DLS, hCD73:mAb 1:1 (2.5:[…]); Rh SD 1.0, %Pd 25.1 (SD 2.1), %Mass 22.3 (SD 4.9).
Assay [31] shares this target. The assay is described as follows: DLS, hCD73:mAb 1:2 (2.5:5 uM); Rh SD 0.1, %Pd 31.3 (SD 5.5), %Mass 68.7 (SD 25.8).
Assay [32] has the same target. The assay is described as follows: DLS, hCD73:mAb 1:4 (2.5:10 uM); Rh SD 0.9, %Pd 42.9 (SD 3.5), %Mass 90.2 (SD 17.5).
Assay [33] shares this target. The assay is described as follows: DLS, hCD73:mAb 1:0.5 (2.5:1.25 uM); Rh SD 1.0, %Pd 31.7 (SD 8.8), %Mass 62.6 (SD 25.8).
Assay [34] shares this target. Put plainly: DLS, hCD73:mAb 1:0.25 (2.5:0.625 uM); Rh SD 1.7, %Pd 46.5 (SD 5.9), %Mass 99.9 (SD 0.1).
Assay [35] deals with N-hCD73-his (N-terminal domain of human CD73, residues 26-336) (human) (UniProt P21589). Put plainly: DLS, N-hCD73:mAb 1:1 as printed (5:[…]); Rh SD 0.3, %Pd 13.9 (SD 7.0), %Mass 100.0 (SD 0.0).

Sequence of hCD73-his (full length extracellular domain of human CD73, residues 26-546, C-terminal polyhistidine tag) (human) (P21589 26-546 limits assumed): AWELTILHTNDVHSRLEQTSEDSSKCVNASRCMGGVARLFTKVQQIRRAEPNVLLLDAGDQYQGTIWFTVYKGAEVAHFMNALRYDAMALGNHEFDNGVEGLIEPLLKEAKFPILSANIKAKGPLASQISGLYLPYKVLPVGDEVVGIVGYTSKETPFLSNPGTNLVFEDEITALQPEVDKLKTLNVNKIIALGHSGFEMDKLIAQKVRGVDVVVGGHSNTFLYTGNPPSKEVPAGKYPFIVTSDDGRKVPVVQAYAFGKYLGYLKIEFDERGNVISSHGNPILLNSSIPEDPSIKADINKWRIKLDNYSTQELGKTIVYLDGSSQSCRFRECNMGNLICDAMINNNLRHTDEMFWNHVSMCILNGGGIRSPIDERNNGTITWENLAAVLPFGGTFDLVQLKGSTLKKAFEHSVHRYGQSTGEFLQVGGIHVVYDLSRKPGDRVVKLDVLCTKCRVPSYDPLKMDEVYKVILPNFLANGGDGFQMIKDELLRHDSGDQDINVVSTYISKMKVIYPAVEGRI

B1: 11F11-Fab (Fab, V domains shown, part only)
VH: QVQLVESGGGVVQPGRSLRLSCATSGFTFSNYGMHWVRQAPGKGLEWVAVILYDGSNKYYPDSVKGRFTISRDNSKNTLYLQMNSLRAEDTAVYYCARGGSSWYPDSFDIWGQGTMVTVSS
VL: DIQMTQSPSSLSASVGDRVTITCRASQGISSWLAWYQQKPEKAPKSLIYAASSLQSGVPSRFSGSGSGTDFTLTISSLQPEDFATYYCQQYNSYPLTFGGGTKVEIKR
modifications: CH1 of Fab heavy chain not stated
In the case of B1, the MW (kDa) Peak 1 came out at 300 kDa in assay [1] and 84 kDa in [6]. Besides, in [2], the MW (kDa) Peak 3 is 85 kDa. For the same molecule, in assay [3], the MW (kDa) Peak 4 was 40 kDa. The MW (kDa) Peak 2 stood at 310 kDa in assay [4] and 44 kDa in assay [5]. Besides, the Rh (DLS) in [7] amounted to 6.4 nm; in assay [8] it was 4.2 nm.

B2: CD73.4-hybrid (antibody, from a related filing, V domains shown, part only)
VH: QVQLVESGGGVVQPGRSLRLSCAASGFTFSNYGMHWVRQAPGKGLEWVAVILYDGSNKYYPDSVKGRFTISRDNSKNTLYLQMNSLRAEDTAVYYCARGGSSWYPDSFDIWGQGTMVTVSS
VL: DIQMTQSPSSLSASVGDRVTITCRASQGISSWLAWYQQKPEKAPKSLIYAASSLQSGVPSRFSGSGSGTDFTLTISSLQPEDFATYYCQQYNSYPLTFGGGTKVEIKR
On to B2, for which the MW (kDa) Peak 3 in assay [9] amounted to 530 kDa; in assay [13], 220 kDa; in assay [17], 200 kDa; in assay [22] it was 130 kDa; in assay [23], 180 kDa; in assay [27], 120 kDa. The MW (kDa) Peak 2 in assay [10] was determined as 1000 kDa; in assay [15] it was 500 kDa; in assay [18], 500 kDa; in [21] it was 540 kDa; in assay [26], 520 kDa; in [29], 210 kDa. In addition, the MW (kDa) Peak 1 amounted to 1300 kDa in assay [11]; 3300 kDa in assay [12]; 1700 kDa in [14]; 1900 kDa in assay [20]; 1200 kDa in [25]; 390 kDa in [28]. In addition, the MW (kDa) Peak 4 turned out to be 140 kDa in [16], 140 kDa in assay [19] and 150 kDa in [24]. For the same molecule, the Rh (DLS) stood at 29.9 nm in assay [30]; 14.4 nm in assay [31]; 11.4 nm in assay [32]; 17.5 nm in assay [33]; 13.2 nm in assay [34]; 6.7 nm in assay [35].

For the origin of these results see patent US20200268901A1.
